For the data set the following is noted: pH 7, reversible: no, whole UniProt chain shown; for denaturant m value / denaturant midpoint (higher = more stable): GdnHCl, Tris-HCl 50 mM; for Tm: Thermal, HEPES 20 mM.
Where [1] appears, read: Thermus thermophilus (strain ATCC 27634 / DSM 579 / HB8), 25 °C, CD.
Setting [2] is: Thermus thermophilus (strain ATCC 27634 / DSM 579 / HB8), 25 °C, Fluorescence.
[3] abbreviates: Escherichia coli (strain K12), 25 °C, CD.
Setting [4] is: Escherichia coli (strain K12), 25 °C, Fluorescence.
Setting [5] is: Sulfolobus acidocaldarius (strain ATCC 33909 / DSM 639 / JCM 8929 / NBRC 15157 / NCIMB 11770), 25 °C, CD.
The mark [6] stands for this setting: Sulfolobus acidocaldarius (strain ATCC 33909 / DSM 639 / JCM 8929 / NBRC 15157 / NCIMB 11770), 25 °C, Fluorescence.
[7] abbreviates: Sulfolobus acidocaldarius (strain ATCC 33909 / DSM 639 / JCM 8929 / NBRC 15157 / NCIMB 11770), 50 °C, CD.

Several values for one entry are separate records, joined by “and”; a condition that tells them apart may be missing. Equal values may be shown once.

B1: Inorganic pyrophosphatase wild type, P38576 (protein)
chain: MANLKSLPVGDKAPEVVHMVIEVPRGSGNKYEYDPDLGAIKLDRVLPGAQFYPGDYGFIPSTLAEDGDPLDGLVLSTYPLLPGVVVEVRVVGLLLMEDEKGGDAKVIGVVAEDQRLDHIQDIGDVPEGVKQEIQHFFETYKALEAKKGKWVKVTGWRDRKAALEEVRACIARYKG
For B1, the denaturant m value reads like this: under setting [1], 5.74 kcal/mol/M; under setting [2], 5.74 kcal/mol/M. Besides, the “denaturant midpoint (higher = more stable)” value (“denaturant midpoint” for short) is 4.7 M under setting [1]; 5.1 M and 4.7 M under setting [2]. Besides, the melting temperature (Tm) reads like this: (Thermus thermophilus (strain ATCC 27634 / DSM 579 / HB8), CD, EDTA 5 mM) 86 °C; (Thermus thermophilus (strain ATCC 27634 / DSM 579 / HB8), CD) 96 °C.

B2: Inorganic pyrophosphatase wild type, P0A7A9 (protein)
chain: MSLLNVPAGKDLPEDIYVVIEIPANADPIKYEIDKESGALFVDRFMSTAMFYPCNYGYINHTLSLDGDPVDVLVPTPYPLQPGSVIRCRPVGVLKMTDEAGEDAKLVAVPHSKLSKEYDHIKDVNDLPELLKAQIAHFFEHYKDLEKGKWVKVEGWENAEAAKAEIVASFERAKNK
For the protein B2, under setting [3], the denaturant m value came to 3.35 kcal/mol/M and the “denaturant midpoint” value stood at 4.9 M. Under setting [4], the denaturant m value was 3.35 kcal/mol/M and 2.63 kcal/mol/M; the “denaturant midpoint” value was 4.9 M and 4.5 M. Further, under “Escherichia coli (strain K12), CD, EDTA 5 mM”, the midpoint of thermal melting (Tm) worked out at 58 °C.

B3: Inorganic pyrophosphatase wild type, P50308 (protein)
chain: MKLSPGKNAPDVVNVLVEIPQGSNIKYEYDDEEGVIKVDRVLYTSMNYPFNYGFIPGTLEEDGDPLDVLVITNYQLYPGSVIEVRPIGILYMKDEEGEDAKIVAVPKDKTDPSFSNIKDINDLPQATKNKIVHFFEHYKELEPGKYVKISGWGSATEAKNRIQLAIKRVSGGQ
In the case of B3, the denaturant m value is 5.5 kcal/mol/M under setting [5]; 8.13 kcal/mol/M and 6.93 kcal/mol/M and 5.98 kcal/mol/M under setting [6]; 6.93 kcal/mol/M and 5.74 kcal/mol/M under setting [7]. The “denaturant midpoint” value is 3.1 M under setting [5]; 3.2 M and 2.9 M and 3.1 M under setting [6]; 2.8 M and 2.9 M under setting [7].

The term Tm denotes the temperature at which the thermal transition is half complete.

For the origin of these results see FireProtDB (doi:10.1006/abbi.1998.1072).
